First the molecules themselves.
T1: MBP-Ecm25-N-term+RhoGAP (1–360aa) (S. cerevisiae, UniProt P32525 1-360)
T1 sequence (looked up): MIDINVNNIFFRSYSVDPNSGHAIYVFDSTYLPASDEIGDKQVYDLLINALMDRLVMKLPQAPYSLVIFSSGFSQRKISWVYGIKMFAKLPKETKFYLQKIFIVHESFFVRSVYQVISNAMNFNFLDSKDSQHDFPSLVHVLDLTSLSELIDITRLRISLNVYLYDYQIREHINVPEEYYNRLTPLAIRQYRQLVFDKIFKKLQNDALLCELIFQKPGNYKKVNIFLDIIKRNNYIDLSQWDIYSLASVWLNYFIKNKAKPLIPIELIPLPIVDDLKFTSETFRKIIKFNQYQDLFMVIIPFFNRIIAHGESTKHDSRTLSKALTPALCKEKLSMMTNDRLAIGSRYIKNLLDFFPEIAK

T2: MBP-Ecm25-FL (full length, 1–599aa) (S. cerevisiae, UniProt P32525 1-599)
T2 sequence (looked up): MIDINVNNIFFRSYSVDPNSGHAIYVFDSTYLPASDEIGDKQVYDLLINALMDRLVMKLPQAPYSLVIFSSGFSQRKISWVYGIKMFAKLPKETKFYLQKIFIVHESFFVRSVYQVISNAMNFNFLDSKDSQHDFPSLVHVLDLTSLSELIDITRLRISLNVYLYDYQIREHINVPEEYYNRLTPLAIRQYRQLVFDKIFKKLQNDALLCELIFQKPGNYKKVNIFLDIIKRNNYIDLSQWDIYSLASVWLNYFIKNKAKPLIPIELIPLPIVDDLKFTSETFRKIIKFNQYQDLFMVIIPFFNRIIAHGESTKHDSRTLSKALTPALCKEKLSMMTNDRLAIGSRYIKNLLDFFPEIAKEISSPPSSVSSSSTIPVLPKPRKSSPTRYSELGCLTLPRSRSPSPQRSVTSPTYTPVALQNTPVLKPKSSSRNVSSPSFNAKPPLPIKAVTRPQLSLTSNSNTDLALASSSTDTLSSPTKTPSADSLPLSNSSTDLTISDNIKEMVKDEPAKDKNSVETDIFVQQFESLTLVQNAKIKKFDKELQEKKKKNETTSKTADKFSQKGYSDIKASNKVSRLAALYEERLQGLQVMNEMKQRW

B1: GST-Cdc42 (natural protein)
chain: not shown
B2: GST-Cdc42(T17N) (natural protein)
chain: not shown
B3: GST-Cdc42(Q61L) (natural protein)
chain: not shown
B4: GST-Sla1(1–420aa, W41S) (domain or fragment, S. cerevisiae, UniProt P32790 1-420, looked up)
chain: MTVFLGIYRAVYAYEPQTPEELAIQEDDLLYLLQKSDIDDSWTVKKRVIGSDSEEPVGLVPSTYIEEAPVLKKVRAIYDYEQVQNADEELTFHENDVFDVFDDKDADWLLVKSTVSNEFGFIPGNYVEPENGSTSKQEQAPAAAEAPAATPAAAPASAAVLPTNFLPPPQHNDRARMMQSKEDQAPDEDEEGPPPAMPARPTATTETTDATAAAVRSRTRLSYSDNDNDDEEDDYYYNSNSNNVGNHEYNTEYHSWNVTEIEGRKKKKAKLSIGNNKINFIPQKGTPHEWSIDKLVSYDNEKKHMFLEFVDPYRSLELHTGNTTTCEEIMNIIGEYKGASRDPGLREVEMASKSKKRGIVQYDFMAESQDELTIKSGDKVYILDDKKSKDWWMCQLVDSGKSGLVPAQFIEPVRDKKHTE
B5: GST-Sla1(1–420aa, W108S) (domain or fragment, S. cerevisiae, UniProt P32790 1-420, looked up)
chain: B4 chain with S41W, W108S
B6: GST-Lsb3 (natural protein, S. cerevisiae, UniProt P43603 1-459, looked up)
chain: MGINNPIPRSLKSETKKAAKILASFVKPNQVFGADQVIPPDVLKRAKGLAIITILKAGFLFSGRAGSGVIVARLKDGTWSAPSAIAMAGAGAGGMVGIELTDFVFILNTQDAVKSFSEFGTITLGGNVSVSAGPLGRSAEAAASASAGGVAAVFAYSKSKGLFAGVSVEGSAIIERREANRKFYGDNCTAKMILSGRIRPPPAVDPLFRVLESRAFNYRPSNGGRGSFDDDEDDYYDDDDYYNDIPSSFSSTDASSTRPNTRSTRRRAQSGSRYTFDDDDDDDDYGTGYSRNSRLAPTNSGGSGGKLDDPSGASSYYASHRRSGTAQSRARSSRNRWADDEYDDYDDDYESGYRRGNGRDRTKDREVDDLSNRFSKSRISSASTPQTSQGRFTAPTSPSTSSPKAVALYSFAGEESGDLPFRKGDVITILKKSDSQNDWWTGRVNGREGIFPANYVELV
B7: GST-Ysc84 (natural protein, S. cerevisiae, UniProt P32793 1-468, looked up)
chain: MGINNPIPRSLKSETKKAAKVLRSFVKPNQVFGADQVIPPYVLKRAKGLAIITVLKAGFLFSGRAGSGVIVARLKDGTWSAPSAIAMAGAGAGGMVGVELTDFVFILNSEEAVRSFSEFGTITLGGNVSVSAGPLGRSAEAAASASTGGVSAVFAYSKSKGLFAGVSVEGSAILERREANRKFYGDNCTSKMILSGRVKVPPAADPLLRILESRAFNFTRHDHDDNASGDDFYDDGQYSDNTSHYYDDIPDSFDSTDESSTRPNTRSSRRRGMSLGSRSRYDDDYDDDGYGRGRGYGDFDSEDEDYDYGRSPNRNSSRNRGPQIDRGTKPRANTRWEDDLYDRDTEYSRPNHSGRDYDNTRGNRRGYGRERGYSLGHGPTHPSNMSNVDDLSHKMSKTGLGNESTATNSATPTAVALYNFAGEQPGDLAFKKGDVITILKKSDSQNDWWTGRTNGKEGIFPANYVRVS

Consider seven molecules from publication PMC8202958 (Cell reports, 2021).

Changes are numbered by the printed parent chain. Names may count otherwise.

The target in the first test is T1, MBP-Ecm25-N-term+RhoGAP (1–360aa). The experiment in a line: pull-down.
With B1, the binding result is “binds”. As for B2, the binding result is reported as “binds”.

With B3, the binding result was “binds”.

The target of the next test is T2, MBP-Ecm25-FL (full length, 1–599aa). The experiment in a line: pull-down.
In the case of B4, the binding result was “binds”. On to B5, for which the binding result was “binds”. For the molecule B6, the binding result is reported as “binds”.

On to B7, for which the binding result is given as “binds”.
